In paper PMC4942342:

Molecular target: sHRPb-NLG (evolved sHRPb fused to neuroligin) (horseradish | not stated)
Assay: split reporter

In the case of “sHRPa-NRX (evolved sHRPa fused to neurexin)”, the signal to noise ratio (fluorescence intensity relative to background) is reported as 1.5 to 13.4.
